Target: T1, Bst 2.0 DNA polymerase (UniProt P52026)
T1 sequence: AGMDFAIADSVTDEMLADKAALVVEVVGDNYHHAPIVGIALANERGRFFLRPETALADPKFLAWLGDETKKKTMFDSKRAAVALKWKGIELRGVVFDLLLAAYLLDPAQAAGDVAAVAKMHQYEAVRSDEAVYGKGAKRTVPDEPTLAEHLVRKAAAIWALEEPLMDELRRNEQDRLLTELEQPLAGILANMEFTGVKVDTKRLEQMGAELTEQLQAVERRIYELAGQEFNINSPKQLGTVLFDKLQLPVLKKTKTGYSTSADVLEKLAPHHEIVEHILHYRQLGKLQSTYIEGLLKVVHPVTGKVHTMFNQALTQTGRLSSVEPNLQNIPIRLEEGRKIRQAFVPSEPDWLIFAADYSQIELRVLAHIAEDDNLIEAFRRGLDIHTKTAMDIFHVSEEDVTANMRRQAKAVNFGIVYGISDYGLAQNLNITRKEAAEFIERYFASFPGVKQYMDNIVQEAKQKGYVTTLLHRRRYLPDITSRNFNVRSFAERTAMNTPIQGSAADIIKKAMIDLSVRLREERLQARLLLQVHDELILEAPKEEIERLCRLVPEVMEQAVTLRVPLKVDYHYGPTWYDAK
Details: N6-allyl-N6-methyladenosine at centre of NNANN, I2-cyclized; mutation rate on all DRACH motifs during reverse transcription; MgSO4, PEG 4000, 37 C

UCGACGUNNANNGGCAUUGCU [NNam6ANN probe] was tested, and the activity was > 25%.

Source: patent US20220364173
